Results taken from doi:10.1101/2020.02.11.944462 (bioRxiv, 2020).

Molecular target: T1, human angiotensin-converting enzyme 2 (ACE2), residues 1-615, untagged (human, UniProt Q9BYF1 18-615)
T1 construct: also called human ACE2; not shown: TwinStrepTag, C-terminal, cleaved; 8XHisTag, C-terminal, cleaved
Experiment: SPR; […], Biacore X100; 10 mM HEPES pH 8.0, 150 mM NaCl, 0.05% Tween 20; […]; 1:1 binding model
Conditions: both partners purified

T1 sequence (Q9BYF1 18-615): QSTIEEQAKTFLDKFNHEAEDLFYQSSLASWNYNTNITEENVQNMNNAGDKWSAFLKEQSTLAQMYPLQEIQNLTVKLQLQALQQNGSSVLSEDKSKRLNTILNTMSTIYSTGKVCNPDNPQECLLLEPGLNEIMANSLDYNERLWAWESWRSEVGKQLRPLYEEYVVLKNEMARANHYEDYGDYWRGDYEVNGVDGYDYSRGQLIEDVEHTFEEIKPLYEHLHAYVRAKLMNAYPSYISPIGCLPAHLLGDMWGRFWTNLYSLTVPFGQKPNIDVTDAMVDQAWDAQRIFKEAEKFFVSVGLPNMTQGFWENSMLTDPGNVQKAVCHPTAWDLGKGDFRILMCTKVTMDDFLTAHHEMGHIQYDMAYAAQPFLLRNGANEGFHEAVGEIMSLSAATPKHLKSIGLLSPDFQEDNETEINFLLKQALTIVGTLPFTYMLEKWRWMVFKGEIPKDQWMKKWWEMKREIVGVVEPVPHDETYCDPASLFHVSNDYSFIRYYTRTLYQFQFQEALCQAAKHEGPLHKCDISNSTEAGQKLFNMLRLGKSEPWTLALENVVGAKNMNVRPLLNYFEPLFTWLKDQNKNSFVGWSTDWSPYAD

B1: SARS-CoV RBD-SD1 (S residues 306-577, Urbani strain), His-tagged (domain or fragment)
chain: not shown
  binding result: binds
